The values below come from PMC4899803.

In this assay the target is cytochrome bd from Escherichia coli, His6-tagged (His6-CydABX) (E. coli) (UniProt P0ABJ9). In words: SEC; 500 ug purified cytochrome bd on Superose 6 10/300 in 50 mM MOPS, 100 mM NaCl, 0.1% LM, pH 7; UV 280 nm, refractive index and right angle light scattering monitored. (SEC sorts molecules by how far they enter the pores of the column.)

As usually defined, the stoichiometry N is a count of units in the complex or per binding partner.

The substance “cytochrome bd from Escherichia coli, His6-tagged (His6-CydABX) (from UniProt P0ABJ9 1-522; P0ABK2 1-379) (complex)” had a stoichiometry N of 4.
